B1: Hairpin Ribozyme (parent)
chain: GUCCUCUUUCACGUGCGCGUGAAAGAGAGAAGUGAACCAGAGAAACACACGUUGUGGUAUAUUACCUGGUA

In the series the parent is B1. Description: self-cleavage, relative activity (ratio to wild type); higher = more cleavage; co-transcriptional.
In the case of A24C G69A, the self-cleavage came to 0.484. For the variant G25A A44U, the self-cleavage was 0.179.

Turning to A23C U63C, the self-cleavage came out at 0.136. For the variant A24G A31C, the self-cleavage worked out at 0.041. With A24G A31U, the self-cleavage came out at 0.111. Turning to G25A A59C, the self-cleavage stood at 0.196. Consider G25A A59U, for which the self-cleavage was found to be 0.21. Consider A22U G51A, for which the self-cleavage came out at 0.811.

On to A23G A30U, for which the self-cleavage was 0.181. For A23G A30C, the self-cleavage amounted to 0.115. For A23C A61U, the self-cleavage amounted to 0.204. As to A23C A61G, the self-cleavage is 0.161.

As for A24G G42U, the self-cleavage amounted to 0.289. For the variant A24G G42C, the self-cleavage was 0.275. With A24G G42A, the self-cleavage was 0.111.

A24G U53A: the self-cleavage is 0.822. Take A23G A44G: the self-cleavage was 0.126.

In the case of A23G G27A, the self-cleavage came to 0.496.

A23G U58G: the self-cleavage was 0.657.

In the case of A23G A45U, the self-cleavage was 0.143. As for A23G A45C, the self-cleavage stood at 0.0971. On to A23G A45G, for which the self-cleavage came out at 0.175.

For the variant A24C A36C, the self-cleavage came out at 0.631. Turning to A24U A30G, the self-cleavage is 0.164. As for A24C C50A, the self-cleavage was found to be 0.103. With A24C C50U, the self-cleavage was 0.418. Consider A23G C50A, for which the self-cleavage was 0.218. Regarding G25A A61C, the self-cleavage worked out at 0.196. Regarding A22U U52A, the self-cleavage was determined as 0.836. For A23G A47C the value was 0.3; for A23G A47G, 0.171. For A23G A47U, the self-cleavage stood at 0.151. On to A23G G34A, for which the self-cleavage stood at 1.12. Take A23U G29C: the self-cleavage worked out at 0.145. For A23U U58C the value was 1.05. For the variant A23U U58G, the self-cleavage worked out at 0.663. Regarding A24G A30G, the self-cleavage is 0.0908. A23C A24U: the self-cleavage is 0.626.

Turning to A23C A45U, the self-cleavage amounted to 0.207.

Consider A23G A64U, for which the self-cleavage stood at 0.125.

For A23G A64G, the self-cleavage turned out to be 0.43. Take A23U U70G: the self-cleavage came out at 0.647. Consider A23U U70A, for which the self-cleavage was 0.729. As to A24G C50G, the self-cleavage came out at 0.136. As to A24G C50U, the self-cleavage worked out at 0.371. Regarding A23C G42U, the self-cleavage turned out to be 0.348. As to A23C G42C, the self-cleavage was determined as 0.422. For A23C G42A, the self-cleavage amounted to 0.287. A23U A44U: the self-cleavage is 0.15. Turning to A23U A44G, the self-cleavage amounted to 0.248. For the variant A24C U33C, the self-cleavage was 0.16. As for A24C C48A, the self-cleavage was determined as 0.172. Turning to A23C A39C, the self-cleavage stood at 0.517. Consider A23U A31U, for which the self-cleavage was found to be 0.166. In the case of A23U C65U, the self-cleavage came out at 0.402.

Regarding A23U C65A, the self-cleavage worked out at 0.752. Regarding A24U C38A, the self-cleavage stood at 0.154.

Take A23U A30G: the self-cleavage came out at 0.228. On to A23U A30C, for which the self-cleavage was found to be 0.201. As for A23C A26G, the self-cleavage came to 1.01.

For the variant A23C A26U, the self-cleavage amounted to 0.499. As for A23C U60A, the self-cleavage came out at 0.744. For A23C U60C the value was 0.921; for A24C G27U, 0.284; for A23G U67C, 0.218. As for A23G U67A, the self-cleavage amounted to 0.105. As for A24C A31U, the figure is 0.107; as for A24C A31C, 0.209; as for A22U G56C, 0.214.

In the case of A22U G56U, the self-cleavage stood at 0.063. In the case of A24C A64U, the self-cleavage is 0.172. For A23C A30G, the self-cleavage is 0.184. As for A23C A30U, the figure is 0.118; as for A24U A26C, 0.575; as for A24U A26U, 0.443. Consider A24U A26G, for which the self-cleavage worked out at 0.79. Consider A23U A24G, for which the self-cleavage came to 0.587. Take A24C G56A: the self-cleavage stood at 0.1. A24C G56U: the self-cleavage turned out to be 0.231.

Consider A24C G56C, for which the self-cleavage is 0.115. As to A24C C66G, the self-cleavage came to 0.0731. For A24C C66A, the self-cleavage came out at 0.187. For the variant A24G G54C, the self-cleavage was 0.458. As for A22U U67A, the figure is 0.188; as for A22U U67C, 0.168; as for A23G A49U, 0.227. For A23C A64U the value was 0.118. For A23C A64C the value was 0.0802; for A24U A61U, 0.187. As for A24U G25C, the self-cleavage came to 0.385.

For the variant A24U G25A, the self-cleavage was 0.219. Consider A24G U63A, for which the self-cleavage was found to be 0.231. For A24U C48U the value was 0.252; for A23U A45G, 0.129; for A23G A36U, 0.514.

Regarding A23G A36G, the self-cleavage was found to be 0.933. For the variant A23G U55A, the self-cleavage worked out at 0.273. In the case of A23G U55C, the self-cleavage was 0.322. A24C A71C: the self-cleavage worked out at 1.33.

As to G25A A47C, the self-cleavage was 0.107. As to A23U G34C, the self-cleavage came to 1.12. As for A23U C50A, the figure is 0.277. As for A23U C50G, the self-cleavage turned out to be 0.239.

As for A23U G69U, the self-cleavage turned out to be 0.247.

For the variant A24G A64C, the self-cleavage stood at 0.17.

Turning to A23U A26U, the self-cleavage amounted to 0.606. For A23U A26C, the self-cleavage came out at 0.545. Consider A23C G40U, for which the self-cleavage was 0.175.

For the variant A23C G40A, the self-cleavage was found to be 0.342. Regarding A24C G32A, the self-cleavage was found to be 0.161.

With A24C G32C, the self-cleavage was 0.131. Regarding G25A A41G, the self-cleavage worked out at 0.494.

Turning to A24U, the self-cleavage is 0.868. Take A24C: the self-cleavage stood at 0.894. As for A24G, the figure is 0.87. With A24U U53C, the self-cleavage came to 0.885. As for A24U U53A, the self-cleavage came to 1.03. As to A24G U67A, the self-cleavage was 0.204. Consider A24C G51A, for which the self-cleavage worked out at 0.932. As to A24C G51C, the self-cleavage was determined as 0.77.

As to A22U U63G, the self-cleavage was 0.203. For the variant A22U U63C, the self-cleavage was 0.0646. For A23U G40A the value was 0.309; for A23C G32A, 0.102; for A23C G32C, 0.0217. Regarding A23C G32U, the self-cleavage stood at 0.15. For A23U C48U the value was 0.118; for A24U C46A, 0.11; for A23C C46U, 0.0785. Take A24U A36G: the self-cleavage was determined as 0.943.

In the case of A23U G68U, the self-cleavage was 0.197. As for A23C U62C, the figure is 0.206.

With A23G A31C, the self-cleavage turned out to be 0.194.

Consider A23U G25U, for which the self-cleavage came to 0.216. For A23U G25C the value was 0.132. As for A23U G25A, the figure is 0.186; as for A23G C38U, 0.43. For A23G C38A the value was 0.239; for A23U A59G, 0.183. Turning to A22U G34C, the self-cleavage was found to be 0.996. As for A22U G34U, the figure is 1.21; as for A24U A43U, 0.121. A24G C46U: the self-cleavage amounted to 0.0984. For the variant A24G A41C, the self-cleavage turned out to be 0.743. In the case of A24U G51C, the self-cleavage turned out to be 0.805.

Take A22U G69C: the self-cleavage amounted to 0.219.

Consider A24U G57U, for which the self-cleavage is 0.188.

A24U U33C: the self-cleavage turned out to be 0.0916.

Regarding A24G U52A, the self-cleavage is 1.12.

For A24C U70C, the self-cleavage is 0.778. Turning to A24C U70G, the self-cleavage came to 0.666.

Regarding A24U C37A, the self-cleavage came to 0.304. In the case of A23G G32A, the self-cleavage is 0.0936. As for G25A A36U, the figure is 0.363; as for A23G C46U, 0.0862; as for A24G G29U, 0.0932. Take A24G G29C: the self-cleavage came out at 0.174. Take A23C G51U: the self-cleavage was determined as 0.993. For A22U U53A, the self-cleavage stood at 0.859. As for A22U U53C, the figure is 0.897; as for A24U A47G, 0.164.

In the case of A24U A47C, the self-cleavage was 0.3. As to A24C A44G, the self-cleavage came out at 0.104. Consider A23C U55C, for which the self-cleavage is 0.184. In the case of A24U A45U, the self-cleavage is 0.159. For A23G C65A, the self-cleavage stood at 0.667. For A24C G57A, the self-cleavage was found to be 0.24.

For the origin of these results see the RNAGym collection of RNA variant scans (doi:10.7554/elife.80360).
